# From paper PMC5685495
# Target: wild-type human dopamine transporter (human) (UniProt Q01959)
# UniProt Q01959, sequence (Q01959 whole entry): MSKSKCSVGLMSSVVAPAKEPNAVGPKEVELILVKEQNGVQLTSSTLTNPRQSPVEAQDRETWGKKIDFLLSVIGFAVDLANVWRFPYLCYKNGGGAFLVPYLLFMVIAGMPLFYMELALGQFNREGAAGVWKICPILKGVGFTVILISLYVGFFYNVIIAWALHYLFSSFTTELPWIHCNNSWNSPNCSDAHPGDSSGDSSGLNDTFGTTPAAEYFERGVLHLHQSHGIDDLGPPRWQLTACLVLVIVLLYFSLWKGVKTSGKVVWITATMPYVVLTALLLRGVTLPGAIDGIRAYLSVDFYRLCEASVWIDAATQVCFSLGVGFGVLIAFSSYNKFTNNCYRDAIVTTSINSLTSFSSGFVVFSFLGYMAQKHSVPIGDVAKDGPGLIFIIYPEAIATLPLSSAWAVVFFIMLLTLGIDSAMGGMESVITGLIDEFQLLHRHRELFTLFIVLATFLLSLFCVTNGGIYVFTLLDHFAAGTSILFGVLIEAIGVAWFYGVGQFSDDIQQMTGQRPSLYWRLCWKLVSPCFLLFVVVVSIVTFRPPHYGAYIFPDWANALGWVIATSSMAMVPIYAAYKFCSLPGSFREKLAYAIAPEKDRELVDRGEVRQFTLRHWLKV
substance,measurement,value
Recombinant Tat1-86 (from UniProt P04608 1-86) (natural protein),decrease in DA uptake by WT hDAT in the presence of recombinant Tat1-86,31%
